Experimental data published in US20230340114A1 (IMMUNE ONC THERAPEUTICS, published 2023).

Columns and labels:
[1] = molecular target: T1, human LILRB4 expressed on cells (human, UniProt Q8NHJ6 22-448); experiment: cell-based or functional assay
[2] = molecular target: T2, recombinant human LILRB4 protein (Sino Biological, cat #16742-H08H) (human, UniProt Q8NHJ6 22-259); experiment: SPR (Biacore 8K), LILRB4 immobilized on CM5 chip, bispecific as analyte, 1:1 model
T2 construct: extracellular domain; also called LILRB4 recombinant protein (Sino Biological); Human LILRB4 ECD-his; not shown: his tag
Description: (§1) Binding affinities of first-generation bispecific antibodies to recombinant CD3e-CD3d heterodimer protein (Acro Biosystems) or LILRB4 recombinant protein (Sino Biological) were measured by surface plasmon resonance using a Biacore 8K instrument. Briefly, CD3e-CD3d or LILRB4 protein was immobilized on a CM5 chip with EDC and NHS according to standard protocols. […] The chip was regenerated using 10 mM glycine pH 1.5 as the regeneration buffer. The sensorgrams for reference channel Fc1 and buffer channel were subtracted from the test sensorgrams and the experimental data was fitted by 1:1 binding model.

[3] = molecular target: recombinant CD3e-CD3d heterodimer protein (Acro Biosystems) (UniProt P07766 23-126; P04234 22-105); experiment: SPR (Biacore 8K), CD3e-CD3d immobilized on CM5 chip, bispecific as analyte, 1:1 model
Sequence of recombinant CD3e-CD3d heterodimer protein (Acro Biosystems) (P07766 23-126 limits assumed, chain 1 of 2): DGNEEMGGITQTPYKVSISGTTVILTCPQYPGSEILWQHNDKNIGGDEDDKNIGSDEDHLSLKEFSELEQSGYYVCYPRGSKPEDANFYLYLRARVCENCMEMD
Sequence of recombinant CD3e-CD3d heterodimer protein (Acro Biosystems) (P04234 22-105 limits assumed, chain 2 of 2): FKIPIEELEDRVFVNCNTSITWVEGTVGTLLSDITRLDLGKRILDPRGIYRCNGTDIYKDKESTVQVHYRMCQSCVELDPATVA
Description: as §1

[4] = molecular target: T3, flag-tagged cynomolgus monkey LILRB4 expressed on CHO-K1 cells (cynomolgus monkey); experiment: FACS, CHO-stable cells expressing cyno LILRB4
T3 construct: whole, on cells; also called cyno LILRB4

[5] = molecular target: T1, human LILRB4 expressed on cells; experiment: FACS, CHO-stable cells expressing human LILRB4

Row | Monocyte (max %), Donor 1 [1] [%] | Monocyte (max %), Donor 2 [1] [%] | Monocyte (max %), Donor 3 [1] [%] | Kd [2] [pM] | Kd [3] [pM] | EC50 [4] [pM] | EC50 [5] [pM] | Binder | Monocyte killing EC50, Donor 1 [1] [pM] | Monocyte killing EC50, Donor 2 [1] [pM] | Monocyte killing EC50, Donor 3 [1] [pM] | T-cell cytotoxicity, THP-1 (max %) [1] [%] | T-cell cytotoxicity, THP-1 EC50 (estimated) [1] [pM] | T-cell cytotoxicity, THP-1 EC50 [1] [pM]
1 | 55 | 59 | 54.5 | 260 | 26800 | – | – | 4ab4ab-3 (bispecific antibody, human IgG1, kappa, L234A L235A, also called first-generation LILRB4/CD3 bispecific antibody No. 4) heavy 1: not shown heavy 2: EVQLVESGGGLVQPGGSLRLSCAASGFSLSSSYWISWVRQAPGKGLEWIGSIDSGSVGITYYATWVKGRFTISRDNSKNTLYLQMNSLRAEDTAVYYCARHGDNWALDLWGQGTLVTVLEDLKNVFPPEVAVFEPSEAEISHTQKATLVCLATGFYPDHVELSWWVNGKEVHSGVCTDPQPLKEQPALQDSRYALSSRLRVSATFWQNPRNHFRCQVQFYGLSENDEWTQDRAKPVTQIVSAEAWGRGGGGSGGGGSEVQLVESGGGLVQPGGSLRLSCAASGFSLSSSYWISWVRQAPGKGLEWIGSIDSGSVGITYYATWVKGRFTISRDNSKNTLYLQMNSLRAEDTAVYYCARHGDNWALDLWGQGTLVTVLEDLKNVFPPEVAVFEPSEAEISHTQKATLVCLATGFYPDHVELSWWVNGKEVHSGVCTDPQPLKEQPALQDSRYALSSRLRVSATFWQNPRNHFRCQVQFYGLSENDEWTQDRAKPVTQIVSAEAWGRASDKTHTCPPCPAPELLGGPSVFLFPPKPKDTLMISRTPEVTCVVVDVSHEDPEVKFNWYVDGVEVHNAKTKPREEQYNSTYRVVSVLTVLHQDWLNGKEYKCKVSNKALPAPIEKTISKAKGQPREPQVCTLPPSREEMTKNQVSLSCAVKGFYPSDIAVEWESNGQPENNYKTTPPVLDSDGSFFLVSKLTVDKSRWQQGNVFSCSVMHEALHNHYTQKSLSLSPG light 1: not shown light 2: DIQMTQSPSTLSASVGDRVTITCRASQSISSWLAWYQQKPGKAPKLLIYKASTLASGVPSRFSGSGSGTEFTLTISSLQPDDFATYYCQHGYIRGDLDNVFGGGTKVEIKPDIQNPDPAVYQLRDSKSSDKSVCLFTDFDSQTQVSQSKDSDVYITDKCVLDMRSMDFKSNSAVAWSQKSDFACANAFQNSIIPEDTFFPSPESS | 1.3 | 0.32 | 2.9 | 98.3 | < 0.01 | –
2 | 29 | 44 | 44 | 260 | 57300 | – | – | 4ab3-4ab (bispecific antibody, human IgG1, kappa, L234A L235A, also called first-generation LILRB4/CD3 bispecific antibody No. 6) heavy 1: not shown heavy 2: EVQLVESGGGLVQPGGSLRLSCAASGFSLSSSYWISWVRQAPGKGLEWIGSIDSGSVGITYYATWVKGRFTISRDNSKNTLYLQMNSLRAEDTAVYYCARHGDNWALDLWGQGTLVTVLEDLKNVFPPEVAVFEPSEAEISHTQKATLVCLATGFYPDHVELSWWVNGKEVHSGVCTDPQPLKEQPALQDSRYALSSRLRVSATFWQNPRNHFRCQVQFYGLSENDEWTQDRAKPVTQIVSAEAWGRASDKTHTCPPCPAPEAAGGPSVFLFPPKPKDTLMISRTPEVTCVVVDVSHEDPEVKFNWYVDGVEVHNAKTKPREEQYNSTYRVVSVLTVLHQDWLNGKEYKCKVSNKALPAPIEKTISKAKGQPREPQVCTLPPSREEMTKNQVSLSCAVKGFYPSDIAVEWESNGQPENNYKTTPPVLDSDGSFFLVSKLTVDKSRWQQGNVFSCSVMHEALHNHYTQKSLSLSPG light 1: not shown light 2: DIQMTQSPSTLSASVGDRVTITCRASQSISSWLAWYQQKPGKAPKLLIYKASTLASGVPSRFSGSGSGTEFTLTISSLQPDDFATYYCQHGYIRGDLDNVFGGGTKVEIKPDIQNPDPAVYQLRDSKSSDKSVCLFTDFDSQTQVSQSKDSDVYITDKCVLDMRSMDFKSNSAVAWSQKSDFACANAFQNSIIPEDTFFPSPESS | 0.43 | 0.93 | 1.6 | 98.1 | < 0.01 | –
3 | 39 | 30 | 0 | 230 | 42100 | – | – | 44-3ab (bispecific antibody, human IgG1, kappa, L234A L235A, also called first-generation LILRB4/CD3 bispecific antibody No. 3) heavy 1: not shown heavy 2: EVQLVESGGGLVQPGGSLRLSCAASGFSLSSSYWISWVRQAPGKGLEWIGSIDSGSVGITYYATWVKGRFTISRDNSKNTLYLQMNSLRAEDTAVYYCARHGDNWALDLWGQGTLVTVSSASTKGPSVFPLAPSSKSTSGGTAALGCLVKDYFPEPVTVSWNSGALTSGVHTFPAVLQSSGLYSLSSVVTVPSSSLGTQTYICNVNHKPSNTKVDKRVEPKSCGGGGSGGGGSEVQLVESGGGLVQPGGSLRLSCAASGFSLSSSYWISWVRQAPGKGLEWIGSIDSGSVGITYYATWVKGRFTISRDNSKNTLYLQMNSLRAEDTAVYYCARHGDNWALDLWGQGTLVTVSSASTKGPSVFPLAPSSKSTSGGTAALGCLVKDYFPEPVTVSWNSGALTSGVHTFPAVLQSSGLYSLSSVVTVPSSSLGTQTYICNVNHKPSNTKVDKRVEPKSCDKTHTCPPCPAPEAAGGPSVFLFPPKPKDTLMISRTPEVTCVVVDVSHEDPEVKFNWYVDGVEVHNAKTKPREEQYNSTYRVVSVLTVLHQDWLNGKEYKCKVSNKALPAPIEKTISKAKGQPREPQVCTLPPSREEMTKNQVSLSCAVKGFYPSDIAVEWESNGQPENNYKTTPPVLDSDGSFFLVSKLTVDKSRWQQGNVFSCSVMHEALHNHYTQKSLSLSPG light 1: DIVMTQSPDSLAVSLGERATINCKSSQSLLNSRTRKNYLAWYQQKPGQPPKLLIYWASTRQSGVPDRFSGSGSGTDFTLTISSLQAEDVAVYYCTQSHTLRTFGGGTKVEIKPDIQNPDPAVYQLRDSKSSDKSVCLFTDFDSQTQVSQSKDSDVYITDKCVLDMRSMDFKSNSAVAWSQKSDFACANAFQNSIIPEDTFFPSPESS light 2: DIQMTQSPSTLSASVGDRVTITCRASQSISSWLAWYQQKPGKAPKLLIYKASTLASGVPSRFSGSGSGTEFTLTISSLQPDDFATYYCQHGYIRGDLDNVFGGGTKVEIKRTVAAPSVFIFPPSDEQLKSGTASVVCLLNNFYPREAKVQWKVDNALQSGNSQESVTEQDSKDSTYSLSSTLTLSKADYEKHKVYACEVTHQGLSSPVTKSFNRGEC | – | 3.4 | – | 96.4 | – | 0.43
4 | 45 | 0 | 42 | 290 | 47000 | – | – | 43ab-4 (bispecific antibody, human IgG1, kappa, L234A L235A, also called first-generation LILRB4/CD3 bispecific antibody No. 5) heavy 1: not shown heavy 2: EVQLVESGGGLVQPGGSLRLSCAASGFSLSSSYWISWVRQAPGKGLEWIGSIDSGSVGITYYATWVKGRFTISRDNSKNTLYLQMNSLRAEDTAVYYCARHGDNWALDLWGQGTLVTVSSASTKGPSVFPLAPSSKSTSGGTAALGCLVKDYFPEPVTVSWNSGALTSGVHTFPAVLQSSGLYSLSSVVTVPSSSLGTQTYICNVNHKPSNTKVDKRVEPKSCDKTHTCPPCPAPEAAGGPSVFLFPPKPKDTLMISRTPEVTCVVVDVSHEDPEVKFNWYVDGVEVHNAKTKPREEQYNSTYRVVSVLTVLHQDWLNGKEYKCKVSNKALPAPIEKTISKAKGQPREPQVCTLPPSREEMTKNQVSLSCAVKGFYPSDIAVEWESNGQPENNYKTTPPVLDSDGSFFLVSKLTVDKSRWQQGNVFSCSVMHEALHNHYTQKSLSLSPG light 1: DIVMTQSPDSLAVSLGERATINCKSSQSLLNSRTRKNYLAWYQQKPGQPPKLLIYWASTRQSGVPDRFSGSGSGTDFTLTISSLQAEDVAVYYCTQSHTLRTFGGGTKVEIKPDIQNPDPAVYQLRDSKSSDKSVCLFTDFDSQTQVSQSKDSDVYITDKCVLDMRSMDFKSNSAVAWSQKSDFACANAFQNSIIPEDTFFPSPESS light 2: DIQMTQSPSTLSASVGDRVTITCRASQSISSWLAWYQQKPGKAPKLLIYKASTLASGVPSRFSGSGSGTEFTLTISSLQPDDFATYYCQHGYIRGDLDNVFGGGTKVEIKRTVAAPSVFIFPPSDEQLKSGTASVVCLLNNFYPREAKVQWKVDNALQSGNSQESVTEQDSKDSTYSLSSTLTLSKADYEKHKVYACEVTHQGLSSPVTKSFNRGEC | 0.19 | – | 0.084 | 98.7 | < 0.01 | –
5 | – | – | – | – | – | 1230 | 463 | H7K3 variant 5, K3m1 (N/V) (antibody, V domains shown) VH: EVQLVESGGGLVQPGGSLRLSCAASGFSLSSSYWISWVRQAPGKGLEWIGSIDSGSVGITYYATWVKGRFTISRDNSKNTLYLQMNSLRAEDTAVYYCARHGDNWALDLWGQGTLVTVSS VL: DIQMTQSPSTLSASVGDRVTITCRASQSIVSWLAWYQQKPGKAPKLLIYKASTLASGVPSRFSGSGSGTEFTLTISSLQPDDFATYYCQHGYIRGDLDNVFGGGTKVEIK | – | – | – | – | – | –
6 | – | – | – | – | – | 933 | 402 | H7K3 variant 12, K3m8 (S/V) (antibody, V domains shown) VH: EVQLVESGGGLVQPGGSLRLSCAASGFSLSSSYWISWVRQAPGKGLEWIGSIDSGSVGITYYATWVKGRFTISRDNSKNTLYLQMNSLRAEDTAVYYCARHGDNWALDLWGQGTLVTVSS VL: DIQMTQSPSTLSASVGDRVTITCRASQSINVWLAWYQQKPGKAPKLLIYKASTLASGVPSRFSGSGSGTEFTLTISSLQPDDFATYYCQHGYIRGDLDNVFGGGTKVEIK | – | – | – | – | – | –
7 | – | – | – | – | – | 989 | 480 | H7K3 variant 8, K3m4 (N/Q) (antibody, V domains shown) VH: EVQLVESGGGLVQPGGSLRLSCAASGFSLSSSYWISWVRQAPGKGLEWIGSIDSGSVGITYYATWVKGRFTISRDNSKNTLYLQMNSLRAEDTAVYYCARHGDNWALDLWGQGTLVTVSS VL: DIQMTQSPSTLSASVGDRVTITCRASQSIQSWLAWYQQKPGKAPKLLIYKASTLASGVPSRFSGSGSGTEFTLTISSLQPDDFATYYCQHGYIRGDLDNVFGGGTKVEIK | – | – | – | – | – | –
8 | – | – | – | – | – | 974 | 455 | H7K3 variant 11, K3m7 (S/Q) (antibody, V domains shown) VH: EVQLVESGGGLVQPGGSLRLSCAASGFSLSSSYWISWVRQAPGKGLEWIGSIDSGSVGITYYATWVKGRFTISRDNSKNTLYLQMNSLRAEDTAVYYCARHGDNWALDLWGQGTLVTVSS VL: DIQMTQSPSTLSASVGDRVTITCRASQSINQWLAWYQQKPGKAPKLLIYKASTLASGVPSRFSGSGSGTEFTLTISSLQPDDFATYYCQHGYIRGDLDNVFGGGTKVEIK | – | – | – | – | – | –
